The values that follow come from the DeepSol protein solubility set.

The series can be described thus: soluble on expression in E. coli; label from the status in PepcDB or PDB records.
As to “MRVYKPEDVPNVQLADSTRLVTDEAGLLSNAQEEVMNGRLRAIRSSHAVEFAVVTLPSIGDAPLEDFTLKLARQWGVGNEKNNNGLLLVLVLDQRRVRFETGYGLEGYLPDGLLSRIIHDRMIPHFRSGNYAEGLSEGVLAVQQVLDGSLEHHHHHH”, the “soluble on expression in E. coli” value was “soluble”.
Regarding “MHHHHHHAMGTKKSAAEASKKPRQKRTATKQYNVTQAFGRRGPEQTQGNFGDQDLIRQGTDYKHWPQIAQFAPSASAFFGMSRIGMEVTPSGTWLTYHGAIKLDDKDPQFKDNVILLNKHIDAYKTFP”, the “soluble on expression in E. coli” value is given as “soluble”.
On to “MSLYLCEEHFKEYFERKVARTIEKYKLASKDERILVAVSGGKDSAVTAYVLKKLGYKIECLHLNLGIGEYSEKSEIYAKKQCEFIGAPLNIIRVKELLGYGIGEVRTSRPTCSYCGLTKRYIMNKFAYDNGFDAVATGHNLDDEASFLMNNLLHWNTEYLAKGGPLLPGEGKFVKKIKPLYELTEREVVAYAIAVGLEYIVEECPYARGATTLDMKEVLNELEEKRPGTKFNFVRGFLRKKKLFEPEVKGKDLKECKICGMPASGEICSFCKFWKLGKPLTFKIKEGHHHHHH”, for which the “soluble on expression in E. coli” value is listed as “soluble”.
The same measure for “MGSDKIHHHHHHMGTRKGDAMEKFDTVVIGAGQAGIATSEHLRALGIDHVVLERGRIAERWRSERWDSLVANGPAWHDRFPGMAFSCDGDVFADKECVARYFEDYAKMIDAPVRTGVTVERARPHADRAGFLVETSQGTFDARNLICATGPFQKPAIPPIIPETSDLTQMHSTAYRNPDALPDGAVLVIGGGSSGSQIAAELHDAGRKVFFSIGPHDRPPRRYRGRDNVWWLGVLGIWNMDTPAPGTEHVTIAVSGAHGGKTVDFRLLAERGITLLGMSSGYEDGVLHIANDLKTNLDAGDANMLSLLEAADAYIKRTGIDLPPEPEAWVIPDDPDCVSNPVRALDLSENNIGTVIWATGFQFDYDWLEADTLDDRGSPIHQRGISAVPGLYFVGLPWQSRRGSSFIWGVWHDAKFIADQIAIQENYLAYRPTASS”: “not soluble”.
To “MREFSRPKVVISRCLEFDHCRYNGDMISSPVVVKLKKHVDFLPVCPEVEIGLGVPRNPVRIVLDKGDHRLVQPSSGKDVTEDMKSFCSNFLDSIYEVDGFILKFRSPSCGLKDVKVYPSAGSHGGAVEKISGYFGGAVLGRYPFHPVEDEGRLRNARIKEHFLTKLFTFAAFRKVKSEGSIKDLINFHAQNKFLLMAYNQAELQKLGEIAANREKRPWKELISDYENHLYSALSRAPRYTSTINVLMHALGFFSDQLSSREKALFFDWVQKYREGRASVCPAINMIRSWIVRFEDGYLMSQTFFEPYPEDLIEINPVESHLREDLWK” belongs “not soluble”.
To “MAHHHHHHMYRNLFDKLKDGPLKISILGSGNWASAISKVVGTNAKNNYLFENEVRMWIRDEFVNGERMVDIINNKHENTKYLKGVPLPHNIVAHSDLASVINDADLLIFIVPCQYLESVLASIKESESIKIASHAKAISLTKGFIVKKNQMKLCSNYISDFLNIPCSALSGANIAMICGALKNIITLACGFCDGLNLPTNSKSAIIRNGINEMILFGKGTVTLKYVYHMIKEKNMTNEFPLFTVLHKISFENEDPSSLLKTFMNNKINQLNL” belongs “not soluble”; to “MEASDLTFTVSVDQTTKHVFDAICNVRGWWSEEIEGNTDKRNETFIYQYEDVHYAKIKVQELIPNEKVVWLVTYNYFKFTKDKSEWTGTTIRFDISAKGDKTEIRFTHYGLNPEFECYDICSNAWGQYIGQSLPDLIKSGKGNPNGKNKPTTADEERFSAKNLEHHHHHH”, “soluble”; to “MHHHHHHSSGVDLGTENLYFQSMKIAVIGQSLFGQEVYCHLRKEGHEVVGVFTVPDKDGKADPLGLEAEKDGVPVFKYSRWRAKGQALPDVVAKYQALGAELNVLPFCSQFIPMEIISAPRHGSIIYHPSLLPRHRGASAINWTLIHGDKKGGFSIFWADDGLDTGDLLLQKECEVLPDDTVSTLYNRFLFPEGIKGMVQAVRLIAEGKAPRLPQPEEGATYEGIQKKETAKINWDQPAEAIHNWIRGNDKVPGAWTEACEQKLTFFNSTLNTSGLVPEGDALPIPGAHRPGVVTKAGLILFGNDDKMLLVKNIQLEDGKMILASNFFK”, “soluble”.
With “MGEHICFRRNERLATVNPYWRGNPMVRGRFFNRQHRFRPGMGSVLKWRLSPNPQRKEKKTVKWDPKVCYLRSLDAVVGDSLIWLGHNSFFLQLAGKRIMFDPVFGNIPFVKRQSEFPANPDIFTEIDYLLISHDHFDHLDKQSITRLLNNNPQMKLFCGLGTGELIKSWFPEMRVIEAGWYQQLEDEGLKITFLPAQHWSKRSVRDGGQRLWGAFMLQGNGVSLYYSGDTGYSTHFREIPDLFGAPDYALLGIGAYKPRWFMRPNHISPYESLTASEEMHAGITIPMHYGTFDLSDEPLHDPPKVFAAEAKKRKIRVEIPYLGEIVKLSKRK”, the “soluble on expression in E. coli” value was “not soluble”.
To “MEEEHEEESHLSQSDTVGSAIVEDGPGKEYEIYIKNEELVDKLKLLNYEDGFLKLGVVYKPILKHYFVKSKNVGEQFFLFTSLAAWLIKKSGDESYNMPQEFDDPNSTLANIMAAAKNKGIATDFTAAKLKSGAGENVIFILNSLADASLVHVGFQWQKMIPPKEEDEDTAVDEQDEDDDNDDIVEEPMNFLDDDDDDNVIEIDLKAQGLATESKNPLQSVLQSNTDAITWKQEVERVAPQLKITLKQDAKDWRLHLEQMNSMHKNVEQKVGNVGPYLDNMSKDIAKALERIASREKSLNSQLASMMSKFRRATDTRAELREKYKAASVGVSSRTETLDRISDDIEQLKQQIEEQGAKSSDGAPLVKIKQAVSKLEEELQTMNVQIGVFEQSILNTYLRDHFNFSANLLNIM” belongs “soluble”; to “SIYQVAIKSLPQDWLWCETWCDDESKQRAKTIDLCNNPKTKEPKLEAAARIVPEWVTYDTEIRTLLDHLENKKKSANSVHDEL”, “soluble”.
Consider “YLGGDLKYYGHTIKKANVQAIINYAVQYNILPSGIITQLYLESFWGDSTVGKRDNNWAGMSGGAQTRPSGVKVTTGMARPANEGGTYMHYASVDDFLKDYTYLLAKQGIYNVVGKKNIADYTKGLFRAGGAKYDYAAAGY”, for which the “soluble on expression in E. coli” value is listed as “not soluble”.
The same measure for “MIRDYKSKLEFLAFYDELTGLPNKNSLIRWLNLKVSQMDCIDTYLIFLEVRDLEKLNVTYGYDLVDELIIHISKRIKDIAGEGNKAFKIGFDRFAIICKSENISDFIERMLSQLLLPYNVNGNLIRVNFNIGAAQIENSNEAAANLMRRCDLALIKAKEEGLNEYVIFKPSIELEHHHHHH”: “not soluble”; for “MISVDTMTNASSTEGISLHHISVSDLDNNCYLLTTESDEGTQGLLIDAADNAPALLDLAESAGARITAVVTTHRHFDHVRALEDVLDTTKATHFASLGDSPRLPRSADTTLGEGDTLRWAGHNLRAHILRGHTQEGLALSIKIDGIYHLFVGDSLFPRGVGKTSTPEEFNQLLSDVKTRLFDVYPDTAVVHPGHGKPTTLGTERPHLEQWRQRGW”: “not soluble”.
Regarding “GNIEAALFGLIALYAQTKVIDSIIYGGDAGSMATIVTGNPDGIAAKVIYELDRTATVLPAKGAYSRKDTSVLLCTVRKSQFVKLKRIVYEEDPDAFVMVTETSEVLGLGFRAFKDSL”, the “soluble on expression in E. coli” value is “not soluble”.
The same measure for “MKMINKLIVPVTASALLLGACGASATDSKENTLISSKAGDVTVADTMKKIGKDQIANASFTEMLNKILADKYKNKVNDKKIDEQIEKMQKQYGGKDKFEKALQQQGLTADKYKENLRTAAYHKELLSDKIKISDSEIKEDSKKASHILIKVKSKKSDKEGLDDKEAKQKAEEIQKEVSKDPSKFGEIAKKESMDTGSAKKDGELGYVLKGQTDKDFEKALFKLKDGEVSEVVKSSFGYHIIKADKPTDFNSEKQSLKEKLVDQKVQKNPKLLTDAYKDLLKEYDVDFKDRDIKSVVEDKILNPEKLKQGGAQGGQSGMSQ”: “soluble”; for “MSLKVLLLDVDGTLLSFETHKVSQSSIDALKKVHDSGIKIVIATGRAASDLHEIDAVPYDGVIALNGAECVLRDGSVIRKVAIPAQDFRKSMELAREFDFAVALELNEGVFVNRLTPTVEQIAGIVEHPVPPVVDIEEMFERKECCQLCFYFDEEAEQKVMPLLSGLSATRWHPLFADVNVAGTSKATGLSLFADYYRVKVSEIMACGDGGNDIPMLKAAGIGVAMGNASEKVQSVADFVTDTVDNSGLYKALKHFGVIEGHHHHHH”: “soluble”.
The same measure for “MAHHHHHHMASLKERDTVAPAEIVAGVTASGPAGISAEELHKVLNSSEHASVVVVDVRNADEYASFHIPGSINKPFQELNFAQLADEVAAHTNHAAHMLVFVSAQSPDVDDLAAREYINEYEKSHAATPTKDSVRVLLGGLYTWSQIYSA”: “soluble”; for “MEEVYASELRGREPETVDTLFLDNTQGGVIGGINEKLTKLELLSMVKCGLTTLKGMPVLPALNYLDLSDNELGDDASFDVLIKCAPEIKKITLSGNRLTLDNVRTLKMLPNLMELDLSNNSSLGLLDDYRVKMFEMIPSLKILDGCDVDGEEVEEEFAAGEGAEDSDEGDSDEDGPGLSYLNKSQFSDDETDDYVVPEAGDAETRGAKRAASADCDEPEAKKSAE”: “soluble”; for “MAAPASSATLPSVLQLTANTSAGGKRPSRAVTMPALKQAAKAAAAAPSPSPSFHVFADLPDHLLCSPDNSVWVYAQHTLSFLTSEAAAQAKLGRKVQRMMREAQRQYDISCAFFHSMSSDEQMAEVLRVGSGGGALSLPPAMTAATGTPAKSDRKRLTGVHRALRDAWPTWRGPNMSDAANSLTAREVGGAGESESSENRYSAGLRVNIVLDIVASRKTLRTVPLRSRPYRLAEYLYQLVMQPSATQRATAAPALGDMASHVRSLIIGISDADTTLVGCHIVCPYRHLTSPTPMMMRLRRAIEGAADQERARALAAAEAANTTVSGLDTQWQASSAAAAAEAAASDAAPSPLRSLVASHLAHYRRVDALFPAPYVRVPPQSLEQIDQNRLILCTPGKLLDG”: “not soluble”.
“MSQSEEQNKDIPSSSNFGNPANNGVNVPDAPARRLFDNTSDESDVSLDNDDKTGAETDGSSSSRGCLKSERSRKDHASTSSTRTVRAPQQVSWSFGAKPATPHSQPPAGLKKVPAYSATSSSSQAGPSASTSTARKSSLVGGRGSASSSGHTSPSPSESPARNAGCSSSGESNPDRSLTTPPLAPALKHSAKDGHYRGQRSMSLGGPAHEMLMSQLGGRQGNTVDCSPGEGDKVCLLVDQTRFLVSQRLLTSKPDTMLGRMFSMRASCGDLGADLVSPNERDEFEVADGMTSSCFRAILDYYQSGTMRCPSSVSVSELREACDYLLVPFNAQTVKCQNLHALLHELSNEGAREQFSQFLEEIILPQLVASTEHGERECHLVVLLDDDVVDWDDEYPPQMGEETTHVVYSTHLYKFFKYAENRDCAKQVLKERGLKKIRLGMEGYPTHKEKIKKRFNKAEVIYNYVQRPFVHCSWEKEEARSRHVDFACPIVKSKSNPSLAAAASDPLPQPAPLQQQHRVAVFGEAAPLAAHNRVDDQHFVQPLNQLMQQQAQLPQNNAMLGVNVQQQQHNHPLHSPPVNFQRNDREEE”: the “soluble on expression in E. coli” value is “soluble”.
The same measure for “MTTLLIVPGFGGSGPLHWQSWIAQKYTSSLWVNDLPLLEPKIHIWADAISRAMDNIEGKILILAHSFGCLASSLAIARHPQRVVAAILVAPASPESFSENGHILPEHDDTPTIRNLLPKQTLGICGLVIASENDPWMPFNQAASLAKSFGLPTINLGLSGHINVDSGHGQWPLIDVLVGNFLFQNENVPPIPSIKTAQDKTTPHLFPNGILEHHHHHH”: “not soluble”; for “MLAVVDEEGTPVAGAMGFAQVVRDGLVVDYIGAVDILRELKATLEESLGAELLKAGVAYPPGTSPGDQKALHYIAEAAGFNVIAALDEPTAANNVLNIEDGAVIDIGGGTTGTAVIGQGQVVCVADEPTGGTHVSLVIAGAYRLPFAEAEKLKMDSCKHQELLPIIKPVIEKIAGIIRQHIQEHPVDQVYLVGGTSCFTGFETIVAAELQRPVIKPANPFLVTPLGIALAAAKTCSNP”: “not soluble”.
